Drawing on paper PMC3751566, this text covers response (relative to WT) for 3 variants.

Residue numbers refer to the chain shown, from its start.

Sequences and labels used below:
B1: Protein-tyrosine phosphatase 1B wild type [not stated] / Munc18c (endogenous) [mouse (endogenous in 3T3-L1 and PTP1B KO adipocytes)] (parent)
chain 1: MEMEKEFEQIDKSGSWAAIYQDIRHEASDFPCRVAKLPKNKNRNRYRDVSPFDHSRIKLHQEDNDYINASLIKMEEAQRSYILTQGPLPNTCGHFWEMVWEQKSRGVVMLNRVMEKGSLKCAQYWPQKEEKEMIFEDTNLKLTLISEDIKSYYTVRQLELENLTTQETREILHFHYTTWPDFGVPESPASFLNFLFKVRESGSLSPEHGPVVVHCSAGIGRSGTFCLADTCLLLMDKRKDPSSVDIKKVLLEMRKFRMGLIQTADQLRFSYLAVIEGAKFIMGDSSVQDQWKELSHEDLEPPPEHIPPPPRPPKRILEPHNGKCREFFPNHQWVKEETQEDKDCPIKEEKGSPLNAAPYGIESMSQDTEVRSRVVGGSLRGAQAASPAKGEPSLPEKDEDHALSYWKPFLVNMCVATVLTAGAYLCYRFLFNSNT
chain 2: MAPPVSERGLKSVVWRKIKTAVFDDCRKEGEWKIMLLDEFTTKLLSSCCKMTDLLEEGITVIENIYKNREPVRQMKALYFISPTPKSVDCFLRDFGSKSEKKYKAAYIYFTDFCPDSLFNKIKASCSKSIRRCKEINISFIPQESQVYTLDVPDAFYYCYSPDPSNASRKEVVMEAMAEQIVTVCATLDENPGVRYKSKPLDNASKLAQLVEKKLEDYYKIDEKGLIKGKTQSQLLIIDRGFDPVSTVLHELTFQAMAYDLLPIENDTYKYKTDGKEKEAVLEEDDDLWVRVRHRHIAVVLEEIPKLMKEISSTKKATEGKTSLSALTQLMKKMPHFRKQISKQVVHLNLAEDCMNKFKLNIEKLCKTEQDLALGTDAEGQRVKDSMLVLLPVLLNKNHDNCDKIRAVLLYIFGINGTTEENLDRLIHNVKIEDDSDMIRNWSHLGVPIVPPSQQAKPLRKDRSAEETFQLSRWTPFIKDIMEDAIDNRLDSKEWPYCSRCPAVWNGSGAVSARQKPRTNYLELDRKNGSRLIIFVIGGITYSEMRCAYEVSQAHKSCEVIIGSTHILTPRKLLDDIKMLNKSKDKVSFKDE
B2: Munc18c (endogenous) [mouse (endogenous in 3T3-L1 and PTP1B KO adipocytes)] / Protein-tyrosine phosphatase 1B substrate-trapping [not stated] (parent)
chain 1: B1 chain 2
chain 2: B1 chain 1 with D181A

One test covers variants of B1. Briefly: co-immunoprecipitation (IP PTP1B with FG6, IB Munc18c), band quantification. The conditions noted are these: with Munc18c (endogenous) [mouse (endogenous in 3T3-L1 and PTP1B KO adipocytes)]; 3T3-L1 WT adipocytes, + insulin + Vanadate; read off a plot.
With chain 1 D181A, the response (relative to WT) turned out to be 0.83.

Staying with this test, now noted: with Munc18c (endogenous) [mouse (endogenous in 3T3-L1 and PTP1B KO adipocytes)]; 3T3-L1 WT adipocytes, + insulin, NP40 lysis; read off a plot.
On to chain 1 D181A, for which the response (relative to WT) came out at 2.2.

The test is the same for the next values; noted with them: with Munc18c (endogenous) [mouse (endogenous in 3T3-L1 and PTP1B KO adipocytes)]; 3T3-L1 WT adipocytes, - insulin, NP40 lysis; read off a plot.
For the variant chain 1 D181A, the response (relative to WT) is 1.4.

The variants in a further test derive from B2. Described as above. Conditions: with Protein-tyrosine phosphatase 1B substrate-trapping mutant D181A; Munc18c knockdown 3T3-L1 cells reconstituted with Y521F, transfected with PTP1B D/A, + insulin; read off a plot.
As to chain 1 MAPPVSERGLKSVVWRKIKTAVFDDCRKEGEWKIMLLDEFTTKLLSSCCKMTDLLEEGITVIENIYKNREPVRQMKALYFISPTPKSVDCFLRDFGSKSEKKYKAAYIYFTDFCPDSLFNKIKASCSKSIRRCKEINISFIPQESQVYTLDVPDAFYYCYSPDPSNASRKEVVMEAMAEQIVTVCATLDENPGVRYKSKPLDNASKLAQLVEKKLEDYYKIDEKGLIKGKTQSQLLIIDRGFDPVSTVLHELTFQAMAYDLLPIENDTYKYKTDGKEKEAVLEEDDDLWVRVRHRHIAVVLEEIPKLMKEISSTKKATEGKTSLSALTQLMKKMPHFRKQISKQVVHLNLAEDCMNKFKLNIEKLCKTEQDLALGTDAEGQRVKDSMLVLLPVLLNKNHDNCDKIRAVLLYIFGINGTTEENLDRLIHNVKIEDDSDMIRNWSHLGVPIVPPSQQAKPLRKDRSAEETFQLSRWTPFIKDIMEDAIDNRLDSKEWPYCSRCPAVWNGSGAVSARQKPRTNFLELDRKNGSRLIIFVIGGITYSEMRCAYEVSQAHKSCEVIIGSTHILTPRKLLDDIKMLNKSKDKVSFKDE [chain 1 Y521F], the response (relative to WT) was found to be 0.93.

The same test, now with this note: with Protein-tyrosine phosphatase 1B substrate-trapping mutant D181A; Munc18c knockdown 3T3-L1 cells reconstituted with Y521F, transfected with PTP1B D/A, - insulin; read off a plot.
With chain 1 MAPPVSERGLKSVVWRKIKTAVFDDCRKEGEWKIMLLDEFTTKLLSSCCKMTDLLEEGITVIENIYKNREPVRQMKALYFISPTPKSVDCFLRDFGSKSEKKYKAAYIYFTDFCPDSLFNKIKASCSKSIRRCKEINISFIPQESQVYTLDVPDAFYYCYSPDPSNASRKEVVMEAMAEQIVTVCATLDENPGVRYKSKPLDNASKLAQLVEKKLEDYYKIDEKGLIKGKTQSQLLIIDRGFDPVSTVLHELTFQAMAYDLLPIENDTYKYKTDGKEKEAVLEEDDDLWVRVRHRHIAVVLEEIPKLMKEISSTKKATEGKTSLSALTQLMKKMPHFRKQISKQVVHLNLAEDCMNKFKLNIEKLCKTEQDLALGTDAEGQRVKDSMLVLLPVLLNKNHDNCDKIRAVLLYIFGINGTTEENLDRLIHNVKIEDDSDMIRNWSHLGVPIVPPSQQAKPLRKDRSAEETFQLSRWTPFIKDIMEDAIDNRLDSKEWPYCSRCPAVWNGSGAVSARQKPRTNFLELDRKNGSRLIIFVIGGITYSEMRCAYEVSQAHKSCEVIIGSTHILTPRKLLDDIKMLNKSKDKVSFKDE [chain 1 Y521F], the response (relative to WT) came out at 0.38.

Staying with this test, now noted: with Protein-tyrosine phosphatase 1B substrate-trapping mutant D181A; Munc18c knockdown 3T3-L1 cells reconstituted with Y218/219F, transfected with PTP1B D/A, + insulin; read off a plot.
For the variant chain 1 MAPPVSERGLKSVVWRKIKTAVFDDCRKEGEWKIMLLDEFTTKLLSSCCKMTDLLEEGITVIENIYKNREPVRQMKALYFISPTPKSVDCFLRDFGSKSEKKYKAAYIYFTDFCPDSLFNKIKASCSKSIRRCKEINISFIPQESQVYTLDVPDAFYYCYSPDPSNASRKEVVMEAMAEQIVTVCATLDENPGVRYKSKPLDNASKLAQLVEKKLEDFFKIDEKGLIKGKTQSQLLIIDRGFDPVSTVLHELTFQAMAYDLLPIENDTYKYKTDGKEKEAVLEEDDDLWVRVRHRHIAVVLEEIPKLMKEISSTKKATEGKTSLSALTQLMKKMPHFRKQISKQVVHLNLAEDCMNKFKLNIEKLCKTEQDLALGTDAEGQRVKDSMLVLLPVLLNKNHDNCDKIRAVLLYIFGINGTTEENLDRLIHNVKIEDDSDMIRNWSHLGVPIVPPSQQAKPLRKDRSAEETFQLSRWTPFIKDIMEDAIDNRLDSKEWPYCSRCPAVWNGSGAVSARQKPRTNYLELDRKNGSRLIIFVIGGITYSEMRCAYEVSQAHKSCEVIIGSTHILTPRKLLDDIKMLNKSKDKVSFKDE [chain 1 Y218F Y219F], the response (relative to WT) turned out to be 0.87.

The same test, now with this note: with Protein-tyrosine phosphatase 1B substrate-trapping mutant D181A; Munc18c knockdown 3T3-L1 cells reconstituted with Y218/219F, transfected with PTP1B D/A, - insulin; read off a plot.
On to chain 1 MAPPVSERGLKSVVWRKIKTAVFDDCRKEGEWKIMLLDEFTTKLLSSCCKMTDLLEEGITVIENIYKNREPVRQMKALYFISPTPKSVDCFLRDFGSKSEKKYKAAYIYFTDFCPDSLFNKIKASCSKSIRRCKEINISFIPQESQVYTLDVPDAFYYCYSPDPSNASRKEVVMEAMAEQIVTVCATLDENPGVRYKSKPLDNASKLAQLVEKKLEDFFKIDEKGLIKGKTQSQLLIIDRGFDPVSTVLHELTFQAMAYDLLPIENDTYKYKTDGKEKEAVLEEDDDLWVRVRHRHIAVVLEEIPKLMKEISSTKKATEGKTSLSALTQLMKKMPHFRKQISKQVVHLNLAEDCMNKFKLNIEKLCKTEQDLALGTDAEGQRVKDSMLVLLPVLLNKNHDNCDKIRAVLLYIFGINGTTEENLDRLIHNVKIEDDSDMIRNWSHLGVPIVPPSQQAKPLRKDRSAEETFQLSRWTPFIKDIMEDAIDNRLDSKEWPYCSRCPAVWNGSGAVSARQKPRTNYLELDRKNGSRLIIFVIGGITYSEMRCAYEVSQAHKSCEVIIGSTHILTPRKLLDDIKMLNKSKDKVSFKDE [chain 1 Y218F Y219F], for which the response (relative to WT) is 0.4.
